Patent publication US20190106501A1 (FRED HUTCHINSON CANCER RESEARCH CENTER, published 2019)

Molecular target: T1, CD20 (human, UniProt P11836 1-297)
T1 sequence (looked up): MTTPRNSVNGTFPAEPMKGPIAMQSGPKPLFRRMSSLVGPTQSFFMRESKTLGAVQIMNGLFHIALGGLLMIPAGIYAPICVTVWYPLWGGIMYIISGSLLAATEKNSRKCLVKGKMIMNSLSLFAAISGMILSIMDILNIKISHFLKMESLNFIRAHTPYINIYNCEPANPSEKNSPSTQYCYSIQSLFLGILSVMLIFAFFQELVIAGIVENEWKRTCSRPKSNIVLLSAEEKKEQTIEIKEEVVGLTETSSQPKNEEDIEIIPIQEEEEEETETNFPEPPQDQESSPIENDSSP
Experiment: cell-based or functional assay

B1: rituximab (antibody, V domains shown)
VH: QVQLQQPGAELVKPGASVKMSCKASGYTFTSYNMHWVKQTPGRGLEWIGAIYPGNGDTSYNQKFKGKATLTADKSSSTAYMQLSSLTSEDSAVYYCARSTYYGGDWYFNVWGAGTTVTVSA
VL: QIVLSQSPAILSASPGEKVTMTCRASSSVSYIHWFQQKPGSSPKPWIYATSNLASGVPVRFSGSGSGTSYSLTISRVEAEDAATYYCQQWTSNPPTFGGGTKLEIK
cell size (forward scatter) of CAR T cells after stimulation with Raji, Daudi or Rec-1 cells pre-incubated with rituximab, relative to no rituximab: > 85% | cell size (forward scatter) of CAR T cells incubated with FL-18 cells at 200 µg/ml rituximab, relative to control: 73% | proliferation (CFSE dilution) of Leu16-28-BB-z-tEGFR CAR T cells with Raji, Daudi, Rec-1, FL-18 targets, rituximab up to 200 µg/ml, relative to no rituximab: > 96%
